Test results as given in patent US20230295751, “Biological Detection Sensor Chip and COVID-19 Test Kit” (published 2023).

Assays:
[1] = test system: Negative control virus without spike protein; experiment: SPR; details: 5'-NH2 with 12C spacer
[2] = target: Bovine serum albumin (BSA) (Bos taurus, UniProt P02769 P02769:25-607); experiment: SPR
Sequence of Bovine serum albumin (BSA) (P02769 25-607, one chain of several): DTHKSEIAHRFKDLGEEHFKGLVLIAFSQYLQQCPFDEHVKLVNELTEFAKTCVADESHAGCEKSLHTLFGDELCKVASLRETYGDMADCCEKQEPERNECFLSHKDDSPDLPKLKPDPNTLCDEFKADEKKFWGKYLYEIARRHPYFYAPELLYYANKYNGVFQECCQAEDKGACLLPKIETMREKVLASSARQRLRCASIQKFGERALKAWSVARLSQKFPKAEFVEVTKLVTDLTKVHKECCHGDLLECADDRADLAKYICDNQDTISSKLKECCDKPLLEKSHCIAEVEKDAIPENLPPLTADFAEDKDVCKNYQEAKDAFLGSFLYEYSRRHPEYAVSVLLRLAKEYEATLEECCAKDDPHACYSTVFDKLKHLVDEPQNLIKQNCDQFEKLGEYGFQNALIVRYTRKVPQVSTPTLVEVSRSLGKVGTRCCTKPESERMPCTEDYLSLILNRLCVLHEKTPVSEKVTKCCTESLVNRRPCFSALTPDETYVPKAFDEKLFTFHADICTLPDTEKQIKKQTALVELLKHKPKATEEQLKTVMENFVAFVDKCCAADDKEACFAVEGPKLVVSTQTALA

Row | Molecule | binding [1] [RU] | binding result [2]
1 | CAGCACCGACCTTGTGCTTTGGGAGTGCTGGTCCAAGGGCGTTAATGGACA [Capturing aptamer against SARS-CoV-2 SRBD] | 23 | 
2 | Capturing aptamer against SARS-CoV-2 SRBD (ssDNA, 5'-NH2 with 12C spacer) DNA: CAGCACCGACCTTGTGCTTTGGGAGTGCTGGTCCAAGGGCGTTAATGGACA |  | no binding
